Assay results from publication PMC10484922, “Discovery of a selective and biologically active low-molecular weight antagonist of human interleukin-1β” (Nature Communications, 2023).
Several values for one entry are separate records, joined by “and”; a condition that tells them apart may be missing. Equal values may be shown once. Read-outs that look alike come from different tables or passages of the source.

Target: T1, hIL-1R1 (Homo sapiens, UniProt P14778)
T1 construct: the cell suspension containing the mature Interleukin-1R1(21–337)-His6 was centrifuged; made in house; host or cells: HEK-ExpiGnti- cells (transient, secreted)
T1 sequence (P14778 21-337): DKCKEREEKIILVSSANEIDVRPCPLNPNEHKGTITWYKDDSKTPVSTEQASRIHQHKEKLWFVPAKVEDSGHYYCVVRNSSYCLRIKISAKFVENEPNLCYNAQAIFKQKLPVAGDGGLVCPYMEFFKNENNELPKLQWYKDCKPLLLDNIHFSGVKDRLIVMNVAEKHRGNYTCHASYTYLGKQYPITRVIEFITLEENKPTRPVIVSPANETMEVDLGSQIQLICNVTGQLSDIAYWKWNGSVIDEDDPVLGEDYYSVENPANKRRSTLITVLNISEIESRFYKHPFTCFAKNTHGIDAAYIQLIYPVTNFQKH
Assay: SPR binding of IL-1β and V47A variant to immobilized IL-1R1
Conditions: source data, read-out: SPR binding to IL-1R1, individual experiments (Exp1-3)
Method: The receptor IL-1R1 was covalently immobilized to the chip surface of a CMD50L sensor by amine coupling. The coupling reagents (EDC/NHS and ethanolamine) were from Bruker. 1× PBS pH 7.5 (Gibco 70011-036, 10×), 0.05 % Tween-20 was used as running buffer. The chip surface was activated with a 3 min injection of EDC/NHS (200 mM 1-ethyl-3-(3-dimethylaminopropyl)-carbodiimide hydrochloride, 25 mM N-hydroxysuccinimide), followed by the protein injection of 0.02 mg/ml IL-1R1 diluted in 10 mM sodium acetate pH 5.0 for 3 min at 10 μl/min. The remaining active succinimides on the surface were deactivated by an injection of 1 M ethanolamine hydrochloride pH 8.5 over 3 min at 10 μl/min.
The injection of the protein dilution series was performed with 8 concentrations in SICK mode (single injection cycle kinetic) with a flow rate of 40 μl/min and 2 reference injections with buffer before and after the protein injection.
Data analysis was performed with the Sierra Analyzer 3.4.0 software from Bruker. Signal intensities were corrected for nonspecific binding to the surface by subtracting intensities from the reference surface from those of the hIL-1β surfaces (first reference subtraction) and by subtracting the buffer injection (second reference subtraction). […]
as se ss ed by SPR. Bindi ng of hI L-1b (a, b) and hI L-1bV47A (c, d) to hI L-1R1 monitored by SPR. […]

| Kd (listed as wt IL-1beta) | Kd (listed as IL-1beta V47A) | Substance |
| --- | --- | --- |
| 3.9 nM and 2.4 nM | – | hIL-1β: proteolytically processed mature human interleukin-1β, analyte in SPR on IL-1R1 |
| – | 3.4 nM and 4.3 nM and 4 nM | hIL-1β^V47A: hIL-1β variant with Val47 replaced by Ala |
